B1: GT (protein, UniProt P51161 2-128, looked up)
Gastrotropin: AFTGKFEMESEKNYDEFMKLLGISSDVIEKARNFKIVTEVQQDGQDFTWSQHYSGGHTMTNKFTVGKESNIQTMGGKTFKATVQMEGGKLVVNFPNYHQTSEIVGDKLVEVSTIGGVTYERVSKRLA
B2: GPNMB (protein, UniProt Q14956 23-572, looked up)
Transmembrane glycoprotein NMB: KRFHDVLGNERPSAYMREHNQLNGWSSDENDWNEKLYPVWKRGDMRWKNSWKGGRVQAVLTSDSPALVGSNITFAVNLIFPRCQKEDANGNIVYEKNCRNEAGLSADPYVYNWTAWSEDSDGENGTGQSHHNVFPDGKPFPHHPGWRRWNFIYVFHTLGQYFQKLGRCSVRVSVNTANVTLGPQLMEVTVYRRHGRAYVPIAQVKDVYVVTDQIPVFVTMFQKNDRNSSDETFLKDLPIMFDVLIHDPSHFLNYSTINYKWSFGDNTGLFVSTNHTVNHTYVLNGTFSLNLTVKAAAPGPCPPPPPPPRPSKPTPSLATTLKSYDSNTPGPAGDNPLELSRIPDENCQINRYGHFQATITIVEGILEVNIIQMTDVLMPVPWPESSLIDFVVTCQGSIPTEVCTIISDPTCEITQNTVCSPVDVDEMCLLTVRRTFNGSGTYCVNLTLGDDTSLALTSTLISVPDRDPASPLRMANSALISVGCLAIFVTVISLLVYKKHKEYNPIENSPGNVVRSKGLSVFLNRAKAVFFPGNQEKDPLLKNQEFKGVS
B3: APLP1 (protein, UniProt P51693 39-650, looked up)
Amyloid beta precursor like …: SLAGGSPGAAEAPGSAQVAGLCGRLTLHRDLRTGRWEPDPQRSRRCLRDPQRVLEYCRQMYPELQIARVEQATQAIPMERWCGGSRSGSCAHPHHQVVPFRCLPGEFVSEALLVPEGCRFLHQERMDQCESSTRRHQEAQEACSSQGLILHGSGMLLPCGSDRFRGVEYVCCPPPGTPDPSGTAVGDPSTRSWPPGSRVEGAEDEEEEESFPQPVDDYFVEPPQAEEEEETVPPPSSHTLAVVGKVTPTPRPTDGVDIYFGMPGEISEHEGFLRAKMDLEERRMRQINEVMREWAMADNQSKNLPKADRQALNEHFQSILQTLEEQVSGERQRLVETHATRVIALINDQRRAALEGFLAALQADPPQAERVLLALRRYLRAEQKEQRHTLRHYQHVAAVDPEKAQQMRFQVHTHLQVIEERVNQSLGLLDQNPHLAQELRPQIQELLHSEHLGPSELEAPAPGGSSEDKGGLQPPDSKDDTPMTLPKGSTEQDAASPEKEKMNPLEQYERKVNASVPRGFPFHSSEIQRDELAPAGTGVSREAVSGLLIMGAGGGSLIVLSMLLLRRKKPYGAISHGVVEVDPMLTLEEQQLRELQRHGYENPTYRFLEERP
B4: FCGR2A (protein, UniProt P12318 34-317, looked up)
Low affinity immunoglobulin …: QAAAPPKAVLKLEPPWINVLQEDSVTLTCQGARSPESDSIQWFHNGNLIPTHTQPSYRFKANNNDSGEYTCQTGQTSLSDPVHLTVLSEWLVLQTPHLEFQEGETIMLRCHSWKDKPLVKVTFFQNGKSQKFSHLDPTFSIPQANHSHSGDYHCTGNIGYTLFSSKPVTITVQVPSMGSSSPMGIIVAVVIATAVAAIVAAVVALIYCRKKRISANSTDPVKAAQFEPPGRQMIAIRKRQLEETNNDYETADGGYMTLNPRAPTDDDKNIYLTLPPNDHVNSNN
B5: IRF9 (protein, UniProt Q00978 1-393, looked up)
Interferon regulatory factor 9: MASGRARCTRKLRNWVVEQVESGQFPGVCWDDTAKTMFRIPWKHAGKQDFREDQDAAFFKAWAIFKGKYKEGDTGGPAVWKTRLRCALNKSSEFKEVPERGRMDVAEPYKVYQLLPPGIVSGQPGTQKVPSKRQHSSVSSERKEEEDAMQNCTLSPSVLQDSLNNEEEGASGGAVHSDIGSSSSSSSPEPQEVTDTTEAPFQGDQRSLEFLLPPEPDYSLLLTFIYNGRVVGEAQVQSLDCRLVAEPSGSESSMEQVLFPKPGPLEPTQRLLSQLERGILVASNPRGLFVQRLCPIPISWNAPQAPPGPGPHLLPSNECVELFRTAYFCRDLVRYFQGLGPPPKFQVTLNFWEESHGSSHTPQNLITVKMEQAFARYLLEQTPEQQAAILSLV
B6: CD84 (protein, UniProt Q9UIB8 22-345, looked up)
SLAM family member 5: KDSEIFTVNGILGESVTFPVNIQEPRQVKIIAWTSKTSVAYVTPGDSETAPVVTVTHRNYYERIHALGPNYNLVISDLRMEDAGDYKADINTQADPYTTTKRYNLQIYRRLGKPKITQSLMASVNSTCNVTLTCSVEKEEKNVTYNWSPLGEEGNVLQIFQTPEDQELTYTCTAQNPVSNNSDSISARQLCADIAMGFRTHHTGLLSVLAMFFLLVLILSSVFLFRLFKRRQGRIFPEGSCLNTFTKNPYAASKKTIYTYIMASRNTQPAESRIYDEILQSKVLPSKEEPVNTVYSEVQFADKMGKASTQDSKPPGTSSYEIVI
B7: ITGB5 (protein, UniProt P18084 24-799, looked up)
Integrin beta-5: GLNICTSGSATSCEECLLIHPKCAWCSKEDFGSPRSITSRCDLRANLVKNGCGGEIESPASSFHVLRSLPLSSKGSGSAGWDVIQMTPQEIAVNLRPGDKTTFQLQVRQVEDYPVDLYYLMDLSLSMKDDLDNIRSLGTKLAEEMRKLTSNFRLGFGSFVDKDISPFSYTAPRYQTNPCIGYKLFPNCVPSFGFRHLLPLTDRVDSFNEEVRKQRVSRNRDAPEGGFDAVLQAAVCKEKIGWRKDALHLLVFTTDDVPHIALDGKLGGLVQPHDGQCHLNEANEYTASNQMDYPSLALLGEKLAENNINLIFAVTKNHYMLYKNFTALIPGTTVEILDGDSKNIIQLIINAYNSIRSKVELSVWDQPEDLNLFFTATCQDGVSYPGQRKCEGLKIGDTASFEVSLEARSCPSRHTEHVFALRPVGFRDSLEVGVTYNCTCGCSVGLEPNSARCNGSGTYVCGLCECSPGYLGTRCECQDGENQSVYQNLCREAEGKPLCSGRGDCSCNQCSCFESEFGKIYGPFCECDNFSCARNKGVLCSGHGECHCGECKCHAGYIGDNCNCSTDISTCRGRDGQICSERGHCLCGQCQCTEPGAFGEMCEKCPTCPDACSTKRDCVECLLLHSGKPDNQTCHSLCRDEVITWVDTIVKDDQEAVLCFYKTAKDCVMMFTYVELPSGKSNLTVLREPECGNTPNAMTILLAVVGSILLVGLALLAIWKLLVTIHDRREFAKFQSERSRARYEMASNPLYRKPISTHTVDFTFNKFNKSYNGTVD
B8: CD93 (protein, UniProt Q9NPY3 22-652, looked up)
Complement component C1q …: TGADTEAVVCVGTACYTAHSGKLSAAEAQNHCNQNGGNLATVKSKEEAQHVQRVLAQLLRREAALTARMSKFWIGLQREKGKCLDPSLPLKGFSWVGGGEDTPYSNWHKELRNSCISKRCVSLLLDLSQPLLPSRLPKWSEGPCGSPGSPGSNIEGFVCKFSFKGMCRPLALGGPGQVTYTTPFQTTSSSLEAVPFASAANVACGEGDKDETQSHYFLCKEKAPDVFDWGSSGPLCVSPKYGCNFNNGGCHQDCFEGGDGSFLCGCRPGFRLLDDLVTCASRNPCSSSPCRGGATCVLGPHGKNYTCRCPQGYQLDSSQLDCVDVDECQDSPCAQECVNTPGGFRCECWVGYEPGGPGEGACQDVDECALGRSPCAQGCTNTDGSFHCSCEEGYVLAGEDGTQCQDVDECVGPGGPLCDSLCFNTQGSFHCGCLPGWVLAPNGVSCTMGPVSLGPPSGPPDEEDKGEKEGSTVPRAATASPTRGPEGTPKATPTTSRPSLSSDAPITSAPLKMLAPSGSPGVWREPSIHHATAASGPQEPAGGDSSVATQNNDGTDGQKLLLFYILGTVVAILLLLALALGLLVYRKRRAKREEKKEKKPQNAADSYSWVPERAESRAMENQYSPTPGTDC

This assay deals with plasma proteins. In words: Plasma proteins modulated between baseline and day 28 in responders (CR, VGPR, PR; n = 19), Example 6 (Table 13). Type of assay: in vivo, human. Particulars: plasma protein (OLINK NPX); responders (CR, VGPR, PR; n = 19); itacitinib 200 mg or 300 mg QD with corticosteroids; day 28 vs baseline. Put shortly:
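Longitudinal comparison, day 28 versus baseline, with steroid-naive (N=10) and steroid-refractory (N=18) patients combined. Proteins measured by OLINK proximity extension, log2 normalized protein expression. Differences tested by t tests, ANOVA, Pearson correlation, P<0.05 significant.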
In the case of B1, the “Fold Change, Increased Expression from Baseline to Day 28” value (“Fold Change, Increased Expression” for short) is given as 1.8699.

As for B2, the “Fold Change, Increased Expression” value was found to be 1.2117.

On to B3, for which the “Fold Change, Increased Expression” value was 1.4933.

For B4, the “Fold Change, Decreased Expression from Baseline to Day 28” value (“Fold Change, Decreased Expression” for short) is listed as −1.5278.

For the molecule B5, the “Fold Change, Decreased Expression” value is −1.4384.

For the molecule B6, the “Fold Change, Decreased Expression” value is reported as −1.7208.

In the case of B7, the “Fold Change, Increased Expression” value is reported as 1.229.

As to B8, the “Fold Change, Decreased Expression” value was −1.3029.

Source of the values: patent US12099068B2, “Biomarkers for graft-versus-host disease” (Incyte Corporation, priority 2018, dated 2024).
